For experiment [1], the target named is rh VEGFA (recombinant human VEGFA) (human, UniProt P15692-4 27-191, limits assumed). Put plainly: ELISA, antigen coated at 1 µg/mL. How it is done:
(§1) His-tagged human CD93, cyno CD93, human VEGFA, and mouse VEGFA were coated onto a 96 well plate at 1 μg/mL in 1× PBS overnight at 4′C. The plate was washed with ELISA wash buffer (Boston BioProduct, Inc.) and the wells were blocked with 3% BSA/PBS ELISA blocking buffer for 1 hour at 37′C. […] The plate was washed with ELISA wash Buffer. HRP conjugated Anti-human Fc was added and incubated for one hour at 37° C. The plate was washed with ELISA wash buffer and read in a microplate reader at 405 nm.

Experiment [2] addresses T1, Human CD93 recombinant protein (Sino Biological Inc, Catalog #12589-H08H) (human, UniProt Q9NPY3 22-580).
T1 construct: Biotinylated (EZ-LINK NHS-PEG4 biotin) in the BLI assays; also called hCD93; His-tagged human CD93
T1 sequence (looked up): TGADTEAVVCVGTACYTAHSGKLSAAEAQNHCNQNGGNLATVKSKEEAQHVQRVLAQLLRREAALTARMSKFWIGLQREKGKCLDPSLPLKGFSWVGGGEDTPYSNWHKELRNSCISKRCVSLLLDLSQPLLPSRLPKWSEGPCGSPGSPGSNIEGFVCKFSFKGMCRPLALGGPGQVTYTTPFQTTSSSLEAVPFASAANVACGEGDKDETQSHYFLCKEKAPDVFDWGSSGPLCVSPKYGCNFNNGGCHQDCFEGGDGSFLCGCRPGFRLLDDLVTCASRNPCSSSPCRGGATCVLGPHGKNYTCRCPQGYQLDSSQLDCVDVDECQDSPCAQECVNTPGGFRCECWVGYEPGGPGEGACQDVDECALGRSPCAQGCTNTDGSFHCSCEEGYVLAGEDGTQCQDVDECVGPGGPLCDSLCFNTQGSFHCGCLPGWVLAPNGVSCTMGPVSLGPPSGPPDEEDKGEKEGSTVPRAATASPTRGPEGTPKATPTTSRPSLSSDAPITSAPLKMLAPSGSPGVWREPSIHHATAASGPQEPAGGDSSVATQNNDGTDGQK
Nature of the experiment: ELISA, hCD93-His coated, OD450. How it is done: His-tagged human CD93 was coated onto a 96 well plate at 1 μg/mL in 1×PBS overnight at 4° C. The plate was washed with ELISA wash buffer (Boston BioProduct, Inc.) and the wells were blocked with ELISA blocking buffer for 1 hour at 37° C. Purified antibodies were serially diluted in ELISA blocking buffer (Boston BioProduct, Inc.) and incubated on the receptor for 1 hour at 37° C. The plate was washed with ELISA wash Buffer. […] The plate was washed with ELISA wash buffer. HRP substrate was added for indirect detection of the antibodies binding to CD93.

The target in experiment [3] is T1, Human CD93 recombinant protein (Sino …). Nature of the experiment: summary table, column ELISA (hCD93).
For experiment [4] the target is unchanged. Nature of the experiment: summary table, column Octet (hCD93).
Experiment [5] deals with T2, Human CD93 on cells (human CD93 expressing CHO cells; HUVEC, U937 and KG1a cells) (human, UniProt Q9NPY3 22-652).
T2 construct: whole, on cells; also called hCD93 expressing CHO cells; hCD93 CHO cells
T2 sequence (looked up): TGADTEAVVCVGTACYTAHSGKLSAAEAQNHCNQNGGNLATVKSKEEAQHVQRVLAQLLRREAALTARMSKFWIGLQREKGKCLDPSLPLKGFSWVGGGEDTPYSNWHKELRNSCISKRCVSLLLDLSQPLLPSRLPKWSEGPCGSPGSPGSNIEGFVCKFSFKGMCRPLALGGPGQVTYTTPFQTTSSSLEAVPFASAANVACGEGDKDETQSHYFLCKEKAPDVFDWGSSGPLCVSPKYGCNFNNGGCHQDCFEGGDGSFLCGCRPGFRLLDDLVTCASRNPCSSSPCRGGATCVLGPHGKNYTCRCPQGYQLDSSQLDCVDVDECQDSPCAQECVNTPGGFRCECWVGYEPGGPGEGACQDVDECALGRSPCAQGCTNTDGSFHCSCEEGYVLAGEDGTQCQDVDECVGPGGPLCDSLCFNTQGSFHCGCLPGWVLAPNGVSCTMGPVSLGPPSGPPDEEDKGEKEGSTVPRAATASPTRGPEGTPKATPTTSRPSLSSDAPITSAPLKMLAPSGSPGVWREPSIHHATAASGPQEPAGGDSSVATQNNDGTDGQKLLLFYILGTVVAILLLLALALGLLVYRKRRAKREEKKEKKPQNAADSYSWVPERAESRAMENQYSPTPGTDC
Put plainly: flow cytometry on human CD93 expressing CHO cells. On the procedure:
Human CD93 expressing CHO cells were detached by incubation with TrypLE reagents (Thermo Fisher), which preserves the integrity of CD93 on the cell surface. Then the cells were incubated with serially diluted anti-CD93 antibodies for 30 minutes in 4° C. After washing by FACS buffer, the cells were incubated with Alexa Fluor 647 conjugated anti-human IgG (Jackson ImmunoResearch) for 30 minutes in 4° C. After washing by FACS buffer twice, the samples were acquired in NovoCyte Flow Cytometer and analyzed by NovoExpress software.

Experiment [6] addresses T1, Human CD93 recombinant protein (Sino …). Put plainly: ELISA, His-tagged human CD93 coated, OD450. How it is done: His-tagged human CD93 was coated onto a 96 well plate at 1 μg/mL in 1×PBS overnight at 4° C. The plate was washed with ELISA wash buffer (Boston BioProduct, Inc.) and the wells were blocked with ELISA blocking buffer for 1 hour at 37° C. […] The plate was washed with ELISA wash Buffer. HRP-conjugated anti-human Fc antibody was incubated for 1 hour at 37° C. The plate was washed with ELISA wash Buffer. HRP substrate was added for indirect detection of the antibodies binding to CD93.

Experiment [7] shares this target. Nature of the experiment: BLI (Octet QKe), biotinylated human CD93 on streptavidin biosensors. On the procedure: The binding affinity of anti-CD93 antibodies was determined with bio-layer interferometry using Octet QKe (Fortebio). […] Human CD93 recombinant protein (Sino Biological Inc, Catalog #12589-H08H) was biotinylated using EZ-LINK NHS-PEG4 biotin (Thermo Fisher Scientific). Streptavidin biosensors (Fortebio) were used to load biotinylated CD93 protein (300 seconds in 5 μg/ml). Baseline was stabilized for 60 seconds in 1×kinetics buffer (Fortebio) before anti-CD93 antibodies, at a serial dilution, were allowed to associate for 300 seconds with captured protein. Then the sensors were dissociated in 1× kinetics buffer for 600 seconds. […] (FIG. 41).

The target of experiment [8] is T3, rm VEGFA (recombinant mouse VEGFA) (mouse, UniProt Q00731-2 27-190, limits assumed).
T3 sequence (looked up): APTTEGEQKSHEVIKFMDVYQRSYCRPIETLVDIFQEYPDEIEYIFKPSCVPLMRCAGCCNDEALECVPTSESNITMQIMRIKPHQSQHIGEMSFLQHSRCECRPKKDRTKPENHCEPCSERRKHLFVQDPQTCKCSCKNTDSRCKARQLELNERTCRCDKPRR
Nature of the experiment: ELISA, mVEGFA coated at 1 µg/mL, anti-human Fc HRP; single bars, concentration not given. How it is done: as §1

B1: 7F3-hIgG1 (recombinant chimeric 7F3) (antibody, V domains shown)
VH: QVQLQQSGADLVRPGASVKLSCKASGYTFTDYEMHWVKQTPVYGLEWIGGIDPETGDTAYNQNFKGKATLTADKSSSAAYMELRSLTSEDSAVYYCTNYGNLYYYAMDYWGQGTSVTVSS
VL: ENVLTQSPAIMSASPGEKVTMTCRASSSVSSSYLHWYQQKSGASPKLWIYSTSNLAFGVPARFSGSGSGTSYSLTISSVEAEDAATYYCQQYSGYPLTFGSGTKLEIK
notes: also called chimeric 7F3-hIgG1; recombinant 7F3
With B1, the binding result in experiment [1] and in experiment [8] was “no binding” throughout. Also, the EC50 in experiment [2] came to 20 pM; in experiment [3], 41 pM; in experiment [5], 400 pM; in experiment [6], 41 pM. Besides, the Kd in experiment [4] and in experiment [7] was 588 pM each time. Also, the koff in experiment [7] is 0.000335 s⁻¹. The kon in experiment [7] is 570000 M⁻¹ s⁻¹.
